According to article PMC6172466 (EMBO Reports, 2018):
Positions count from the first letter of the chain named. In names and notes the source's numbering stands.

B1: SAGA DUB module containing wild-type Ubp8 (complex, yeast)
chain 1: MSICPHIQQVFQNEKSKDGVLKTCNAARYILNHSVPKEKFLNTMKCGTCHEINSGATFMCLQCGFCGCWNHSHFLSHSKQIGHIFGINSNNGLLFCFKCEDYIGNIDLINDAILAKYWDDVCTKTMVPSMERRDGLSGLINMGSTCFMSSILQCLIHNPYFIRHSMSQIHSNNCKVRSPDKCFSCALDKIVHELYGALNTKQASSSSTSTNRQTGFIYLLTCAWKINQNLAGYSQQDAHEFWQFIINQIHQSYVLDLPNAKEVSRANNKQCECIVHTVFEGSLESSIVCPGCQNNSKTTIDPFLDLSLDIKDKKKLYECLDSFHKKEQLKDFNYHCGECNSTQDAIKQLGIHKLPSVLVLQLKRFEHLLNGSNRKLDDFIEFPTYLNMKNYCSTKEKDKHSENGKVPDIIYELIGIVSHKGTVNEGHYIAFCKISGGQWFKFNDSMVSSISQEEVLKEQAYLLFYTIRQVN
chain 2: MTEETITIDSISNGILNNLLTTLIQDIVARETTQQQLLKTRYPDLRSYYFDPNGSLDINGLQKQQESSQYIHCENCGRDVSANRLAAHLQRCLSRGARR
chain 3: MTMDTAQLKSQIQQYLVESGNYELISNELKARLLQEGWVDKVKDLTKSEMNINESTNFTQILSTVEPKALEMVSDSTRETVLKQIREFLEEIVDTQ
chain 4: MRSGDAEIKGIKPKVIEEYSLSQGSGPSNDSWKSLMSSAKDTPLQYDHMNRESLKKYFNPNAQLIEDPLDKPIQYRVCEKCGKPLALTAIVDHLEN
notes: Ubp8, catalytic USP subunit of the yeast SAGA DUB module; Sgf11, subunit of the yeast SAGA DUB module (pCDFDuet-1 MCSI); Sus1, subunit of the yeast SAGA DUB module (pRSF-1); Sgf73 residues 1-96, subunit of the yeast SAGA DUB module (pCDFDuet-1 MCSII); Heterotetramer; also called DUBm-Ubp8^WT; wild-type DUBm; copies: + + +
B2: SAGA DUB module containing Ubp8^C146A (complex, yeast)
chain 1: B1 chain 1 with C146A
chain 2: B1 chain 2
chain 3: B1 chain 3
chain 4: B1 chain 4
notes: Ubp8, catalytic USP subunit of the yeast SAGA DUB module, active site cysteine changed; Sgf11, subunit of the yeast SAGA DUB module (pCDFDuet-1 MCSI); Sus1, subunit of the yeast SAGA DUB module (pRSF-1); Sgf73 residues 1-96, subunit of the yeast SAGA DUB module (pCDFDuet-1 MCSII); Heterotetramer; also called DUBm-Ubp8^C146A; DUB module-Ubp8^C146A; copies: + + +
B3: SAGA DUB module containing Ubp8^C146S (complex, yeast)
chain 1: B1 chain 1 with C146S
chain 2: B1 chain 2
chain 3: B1 chain 3
chain 4: B1 chain 4
notes: Ubp8, catalytic USP subunit of the yeast SAGA DUB module, active site cysteine changed; Sgf11, subunit of the yeast SAGA DUB module (pCDFDuet-1 MCSI); Sus1, subunit of the yeast SAGA DUB module (pRSF-1); Sgf73 residues 1-96, subunit of the yeast SAGA DUB module (pCDFDuet-1 MCSII); Heterotetramer; also called DUBm-Ubp8^C146S; copies: + + +
B4: USP4 (8-925) C311A (enzyme, human, UniProt Q13107 8-925, looked up)
chain: RERPDAETQKSELGPLMRTTLQRGAQWYLIDSRWFKQWKKYVGFDSWDMYNVGEHNLFPGPIDNSGLFSDPESQTLKEHLIDELDYVLVPTEAWNKLLNWYGCVEGQQPIVRKVVEHGLFVKHCKVEVYLLELKLCENSDPTNVLSCHFSKADTIATIEKEMRKLFNIPAERETRLWNKYMSNTYEQLSKLDNTVQDAGLYQGQVLVIEPQNEDGTWPRQTLQSKSSTAPSRNFTTSPKSSASPYSSVSASLIANGDSTSTCGMHSSGVSRGGSGFSASYNCQEPPSSHIQPGLCGLGNLGNTAFMNSALQCLSNTAPLTDYFLKDEYEAEINRDNPLGMKGEIAEAYAELIKQMWSGRDAHVAPRMFKTQVGRFAPQFSGYQQQDSQELLAFLLDGLHEDLNRVKKKPYLELKDANGRPDAVVAKEAWENHRLRNDSVIVDTFHGLFKSTLVCPECAKVSVTFDPFCYLTLPLPLKKDRVMEVFLVPADPHCRPTQYRVTVPLMGAVSDLCEALSRLSGIAAENMVVADVYNHRFHKIFQMDEGLNHIMPRDDIFVYEVCSTSVDGSECVTLPVYFRERKSRPSSTSSASALYGQPLLLSVPKHKLTLESLYQAVCDRISRYVKQPLPDEFGSSPLEPGACNGSRNSCEGEDEEEMEHQEEGKEQLSETEGSGEDEPGNDPSETTQKKIKGQPCPKRLFTFSLVNSYGTADINSLAADGKLLKLNSRSTLAMDWDSETRRLYYDEQESEAYEKHVSMLQPQKKKKTTVALRDCIELFTTMETLGEHDPWYCPNCKKHQQATKKFDLWSLPKILVVHLKRFSYNRYWRDKLDTVVEFPIRGLNMSEFVCNLSARPYVYDLIAVSNHYGAMGVGHYTAYAKNKLNGKWYYFDDSNVSLASEDQIVTKAAYVLFYQRRDD
notes: human USP4, residues 8-925, active site cysteine C311 changed to alanine; also called USP4^C311A; USP4 C311A

Legend:
ubiquitin (untagged) = molecular target: T1, ubiquitin (untagged) (UniProt P0CG48 1-76); assay: ITC; 30 μM DUBm in the cell, 0.3 mM K48-linked diubiquitin or monoubiquitin injected; 25°C; 20 mM HEPES pH 7, 150 mM NaCl, 5 nM ZnCl2, 0.5 mM TCEP; one-site binding model; conditions: both partners purified
T1 construct: ubiquitin, untagged (pET3a), free C-terminus at Gly76; also called monoubiquitin; free ubiquitin; source: E. coli Rosetta 2, purified (perchloric acid, HiTrap SP, HiLoad S75)

[1] = molecular target: T2, N-terminally TAMRA-labeled monoubiquitin (UniProt P0CG48 1-76, TAMRA on the N-terminus); assay: fluorescence polarisation; equilibrium binding of USP4 to TAMRA-labelled ubiquitin species; as described in ref. 32; conditions: both partners purified
T2 construct: ubiquitin with a free C-terminus; also called TAMRA-monoubiquitin; ubiquitin labeled with an N-terminal fluorophore

| Binder | Kd (ubiquitin (untagged)) [µM] | Kd [1] [nM] |
| --- | --- | --- |
| B1 | 13.9 |  |
| B2 | 0.43 |  |
| B3 | 12.8 |  |
| B4 |  | 0.6 ± 0.17 |
